Experimental data taken from patent US20050221381A1, “Method for isolating ligands” (priority 2002, published 2005).
Entries after “also recorded” stand apart in the source; their conditions may differ. Like-named read-outs stand apart in the source and are kept apart here.

Legend:
[1] = biological target: T1, soluble DRB1*0101 molecules (Homo sapiens, UniProt P01903+P01911, A100R/D57E/F55L/F60I/F76Y/I96L/L162R/M171V/P40L/Q125E/R42F/V115G/Y59C); assay: Peptide binding assay, SDS-stability assay; design: key: +++: high binding affinity; ++: moderate binding affinity; +: low binding affinity; −: no binding; conditions: individual pp65 15mer
T1 construct: Soluble HLA class I A*0201 and HLA class II DRA1*0101/DRB1*0101/Ii, DRA1*0101/DRB1*0401/Ii and DRA1*0101/DRB1*0404/Ii molecules were expressed in SC-2 cells; made in house; host or cells: SC-2 cells

[2] = biological target: T2, soluble DRB1*0401 molecules (DR4) (Homo sapiens, UniProt P01903+P01911, A100K/A169T/F76Y/I96L/K127E/L162R/M171V/N62H/P40V/Q125Y/R42H/S133A/S149N/S66Y/V115G/V209L/W38E); type: binding; design: key: +++: high binding affinity; ++: moderate binding affinity; +: low binding affinity; −: no binding; conditions: individual pp65 15mer, SDS-stability assay
T2 construct: Soluble HLA class I A*0201 and HLA class II DRA1*0101/DRB1*0101/Ii, DRA1*0101/DRB1*0401/Ii and DRA1*0101/DRB1*0404/Ii molecules were expressed in SC-2 cells; made in house; host or cells: SC-2 cells

[3] = biological target: T2, soluble DRB1*0401 molecules (DR4); type: binding; design: key to DR4 binding: +++: high binding affinity; ++: moderate binding affinity; +: low binding affinity; −: no binding; key to Binding to DRB1 *0401: −: no binding/T cell response; +/−: weak binding/T cell response; +: intermediate binding/T cell response; ++: strong binding/T cell response; conditions: for Binding to DRB1 *0401: soluble DRB1*0401 molecules
[4] = biological target: T2, soluble DRB1*0401 molecules (DR4); type: binding; design: key: −: no binding; +/−: weak binding; +: intermediate binding; ++: strong binding; conditions: individual pp65 15mer, SDS-stability assay
[5] = system: HLA-DRB1*0401-transgenic mice splenocytes; type: in vivo, mouse; design: key to DRB1*0401 mice total SC (T cell response) / DRB1*0401 mice CD4+ (T cell response): −: no binding/T cell response; +/−: weak binding/T cell response; +: intermediate binding/T cell response; ++: strong binding/T cell response
CD4+ T cells = conditions: healthy, CMV-exposed human subjects; partially or fully identical sequences; cited from earlier work
DRB1*0701 = DRB1*0701 (Homo sapiens, UniProt P01903+P01911, A100R/A102G/A103Q/D57E/D86V/E43K/F76Y/K127E/L162R/M171V/P40G/Q125H/Q99D/R33Q/R42Y/R54Q/S133A/S66F/T210M/V115G/Y107V/Y59L/Y89S); assay: Peptide-competition assay with biotinylated CLIP peptide (ELISA); type: binding; design: key: −: no binding/T cell response; +/−: weak binding/T cell response; +: intermediate binding/T cell response; ++: strong binding/T cell response
Method: (§1) The binding affinities to DRB1*0701 and DRB1*1101 were tested by a peptide-competition assay (Reay et al., 1992). Briefly, binding of the biotinylated CLIP peptide (reference peptide) has been used for monitoring of HLA:peptide complex formation. […] In the case of lower affinity peptides they should be added in excess to the reference peptide to compete for occupancy of HLA binding grove. […] Alternatively, comparing of the amount of reference peptide bound to HLA molecules in the presence or absence of competitor peptide one can determine the binding activity of the peptide of interest.
(§2) In the present peptide-competition assay conditions of peptide binding were similar to described above. Soluble HLA molecules were used in the concentration of 0.5 μM and biotinylated CLIP was added to all samples in the final concentration of 2 μM. Competitor peptides were added in three different concentrations: 0.25, 5 and 100 μM. Binding reaction was performed in PBS buffer (pH 7.4) for 18 hours at 37° C. […] Briefly, MaxiSorb 96-well plates (Nunc, Denmark) were coated with mouse anti-αβ antibody L243 (purified from ATCC HB-55) by overnight incubation with 50 μl of 10 μg/ml dilution in PBS at 4° C. Non-specific binding to the plastic was blocked by incubation with T-PBS containing 3% of BSA for 2 hours at 37° C. and binding reactions were then “captured” for 2 hours at room temperature. […] The optical density at 405 nm was measured on a microplate reader SUNRISE (Tecan).

DRB1*1101 = DRB1*1101 (Homo sapiens, UniProt P01903+P01911, A100R/A169T/A87E/I96F/K41T/L162R/M171V/P40S/Q125H/Q178H/Q39Y/Q99D/R42S/S66Y/T262R/V115G/W38E); assay: as above; type: binding; design: key: −: no binding/T cell response; +/−: weak binding/T cell response; +: intermediate binding/T cell response; ++: strong binding/T cell response
Method: as §1, §2

[6] = biological target: T1, soluble DRB1*0101 molecules; assay: Peptide binding assay, SDS-stability assay; design: key: −: no binding/T cell response; +/−: weak binding/T cell response; +: intermediate binding/T cell response; ++: strong binding/T cell response
[7] = biological target: T3, soluble DRB1*0404 molecules (Homo sapiens, UniProt P01903+P01911, A100R/A169T/F76Y/I96L/K127E/L162R/M171V/N62H/P40V/Q125Y/R42H/S133A/S149N/S66Y/V209L/W38E); assay: Peptide binding assay, SDS-stability assay; design: key: −: no binding/T cell response; +/−: weak binding/T cell response; +: intermediate binding/T cell response; ++: strong binding/T cell response
T3 construct: Soluble HLA class I A*0201 and HLA class II DRA1*0101/DRB1*0101/Ii, DRA1*0101/DRB1*0401/Ii and DRA1*0101/DRB1*0404/Ii molecules were expressed in SC-2 cells; made in house; host or cells: SC-2 cells

[8] = biological target: T4, soluble DRB1*0401 molecules (Homo sapiens, UniProt P01903+P01911, A100K/A169T/F76Y/I96L/K127E/L162R/M171V/N62H/P40V/Q125Y/R42H/S133A/S149N/S66Y/V115G/V209L/W38E); assay: Epitope capture from peptide mixtures, gel filtration and MALDI-TOF MS of bound peptides; type: binding
T4 construct: Soluble HLA class I A*0201 and HLA class II DRA1*0101/DRB1*0101/Ii, DRA1*0101/DRB1*0401/Ii and DRA1*0101/DRB1*0404/Ii molecules were expressed in SC-2 cells; made in house; host or cells: SC-2 cells
Description: After peptide binding reaction with soluble HLA molecules, HLA-peptide complexes were separated from free peptides by gel-filtration chromatography on Superdex-200 column (AKTAdesign, Amersham Pharmacia Biotech). HLA-containing fractions were collected, and bound peptides were reconstituted from the complexes by adding TFA to the final concentration of 1%. Peptides were desolted by Ziptip purification and analyzed by MALDI-TOF mass-spectrometry.
Second, the ability to capture peptides binding to HLA class II molecules from the mixture of two high affinity ligands was tested. The binding reaction contained 1 μM of soluble DRB1*0401 molecules and 5 μM of each YAR and 1242 peptide. After the HLA-peptide complexes were formed, they were separated from the excess of free peptides by gel filtration chromatography. Fractions containing MHC molecules were collected. Bound peptides were eluted from the complexes and analyzed by mass-spectrometry.
Third, it was investigated if the binding capacity of the high affinity ligand would be influenced by the excess of low affinity peptide. […] Peptide binding was assessed by SDS-stability assay and verified by MS analysis (FIG. 3).
The final concentration of each peptide in binding reaction was 5 μM, except 1236 added in 55 μM, meaning that the concentration of each individual binding peptide was 20-fold lower than final concentration of all peptides. DRB1*0401 molecules were added to 1 μM. The formation of MHC-peptide complexes was evaluated as described above, using single peptides as controls (FIG. 4). […] The result of this analysis yielded the two peptides with highest binding affinities: 1242 and YAR (see Table 1). The peptides with moderate and/or low affinities were not found in the complexes, probably due to the high concentration of strong competitors used in this assay.

[9] = biological target: T2, soluble DRB1*0401 molecules (DR4); type: binding; design: key: −: no binding/T cell response; +/−: weak binding/T cell response; +: intermediate binding/T cell response; ++: strong binding/T cell response; conditions: longer peptides no. 1500-1505
[10] = IFN-gamma ELISpot, enriched CD4+ fraction of splenocytes of HLA-DR4 transgenic mice vaccinated with the longer peptide, ex vivo re-stimulation
[11] = IFN-gamma ELISpot, total splenocytes of HLA-DR4 transgenic mice vaccinated with the longer peptide, ex vivo re-stimulation
[12] = longer peptides no. 1500-1505, peptide-competition assay

Sequence	Binding to DRB1*0101 [1]	Binding to DRB1*0401 [2]	Binding to DRB1 *0401 [3]	Binding to DRB1*0401 [4]	DRB1*0401 mice CD4+ (T cell response) [5, 10]	DRB1*0401 mice total SC (T cell response) [5, 11]	Specific CD4+ T cells response described earlier (CD4+ T cells)	also measured
EPMSIYVYALPLKML [Peptide 107]	−	−						
IYVYALPLKMLNIPS [Peptide 111]	−	−						
KEPDVYYTSAFVFPT [Peptide 176]	−		+/−	+/−	+	+		
LKYQEFFWDANDIYR [Peptide 508]			+/−	+/−	++	++	capable to evoke specific CD4+ T cells response	
NLKYQEFFWDANDIY [Peptide 507]			+/−	+/−	+	++	capable to evoke specific CD4+ T cells response	Binding to DRB1 *0701 (DRB1*0701; DRB1*0701): −; Binding to DRB1 1101 (DRB1*1101): −; Binding to DRB1*0101 ([6]; soluble DRB1*0101 molecules): −; Binding to DRB1*0404 ([7]; soluble DRB1*0404 molecules): −
PQYSEHPTFTSQYRI [Peptide 361]							capable to evoke specific CD4+ T cells response	DRB1*0401 mice CD4+ (T cell response) ([5]; mouse, in vivo): ++; DRB1*0401 mice total SC (T cell response) ([5]; mouse, in vivo, sc): +
QWKEPDVYYTSAFVF [Peptide 174]	−	−	−		+/−	+/−		
YARFQSQTTLKQKT [reference compound]								DR4 binding [3]: +++; Peptides captured from pool of 10 peptides, MS analysis ([8]; each peptide 5 μM, 1236 55 μM, DRB1*0401 1 μM): captured by DR4 molecules; Peptides found in complexes with MHC molecules by MS ([8]; mixture of two ligands, 5 μM each, 1 μM DRB1*0401): revealed in the complexes with MHC molecules
YRHTWDRHDEGAAQGDDDVW [Peptide 1503]			+/−		−	−		Binding to DRB1 *0701 (DRB1*0701; DRB1*0701): −; Binding to DRB1 *0701 (DRB1*0701; [12]): −; Binding to DRB1 1101 (DRB1*1101): −; Binding to DRB1*1101 (DRB1*1101; [12]): −; Binding to DRB1*0101 ([6]; longer peptides no. 1500-1505): −; Binding to DRB1*0101 ([6]; soluble DRB1*0101 molecules): −; Binding to DRB1*0401 [9]: +/−; Binding to soluble DRB1*0401 molecules (in words) ([3]; SDS-stability assay): weak affinity; DRB1*0401 mice CD4+ (T cell response) ([5]; CD4+ fraction of splenocytes, IFN-γ ELISpot): −; Immunogenicity in DRB1*0401-transgenic mice (in words) ([5]; total splenocytes, INF-gamma ELISpot (FIG. 12)): did not induce immune response; also recorded: not immunogenic; DRB1*0401 mice total SC (T cell response) ([5]; total splenocytes, ex vivo restimulation, IFN-γ ELISpot): −; Binding to DRB1*0404 ([7]; longer peptides no. 1500-1505): −; Binding to DRB1*0404 ([7]; soluble DRB1*0404 molecules): −
